Measurements as given in US20240117018A1.

How the values were obtained:
Test in all cases: cell-based or functional assay
[1] = target: HIV-1 Env of pseudovirus CNE52 (HIV-1)
[2] = target: HIV-1 Env of pseudovirus Ce1086_B2 (HIV-1)
[3] = target: HIV-1 Env of pseudovirus 3415.v1.c1 (HIV-1)
[4] = target: HIV-1 Env of pseudovirus CNE20 (HIV-1)
[5] = target: HIV-1 Env of pseudovirus REJO4541.67 (HIV-1)
[6] = target: HIV-1 Env of pseudovirus HIV-001428-2.42 (HIV-1)
[7] = target: HIV-1 Env pseudovirus SC422661.8 (HIV-1)
[8] = target: HIV-1 Env pseudovirus 6240_08_TA5_4622 (HIV-1)
[9] = target: HIV-1 Env pseudovirus ZM197M.PB7 (HIV-1)
[10] = target: HIV-1 Env pseudovirus 1394C9G1(Rev-) (HIV-1)
[11] = target: HIV-1 Env pseudovirus ZM233M.PB6 (HIV-1)
[12] = target: HIV-1 Env of pseudovirus 0260.v5.c36 (HIV-1)
[13] = target: HIV-1 Env pseudovirus 6952.v1.c20 (HIV-1)
[14] = target: HIV-1 Env pseudovirus 6480.v4.c25 (HIV-1)
[15] = target: HIV-1 Env pseudovirus 620345.c01 (HIV-1)
[16] = target: HIV-1 Env pseudovirus R1166.c01 (HIV-1)
[17] = target: HIV-1 Env pseudovirus P1981_C5_3 (HIV-1)
[18] = target: HIV-1 Env pseudovirus C1080.c03 (HIV-1)
[19] = target: HIV-1 Env pseudovirus X2088_c9 (HIV-1)

Substance: NIH 45-46 (antibody)
- IC50 [1]: 0.03 µg/mL
- IC80 [1]: 0.12 µg/mL
- IC50 [2]: 0.04 µg/mL
- IC80 [2]: 0.28 µg/mL
- IC50 [3]: 0.07 µg/mL
- IC80 [3]: 0.07 µg/mL
- IC50 [4]: 8.71 µg/mL
- IC80 [4]: 47 µg/mL
- IC50 [5]: 0.003 µg/mL
- IC80 [5]: 0.01 µg/mL
- IC50 [6]: < 1 ng/mL
- IC80 [6]: 0.01 µg/mL

Substance: N49P11 (antibody)
- IC50 [7]: 0.729 µg/mL
- IC80 [7]: 3.49 µg/mL
- MPI [7]: 100
- IC50 [8]: 0.72 µg/mL
- IC80 [8]: 3 µg/mL
- MPI [8]: 100
- IC50 [9]: 0.303 µg/mL
- IC80 [9]: 1.59 µg/mL
- MPI [9]: 100
- IC50 [10]: 6.13 µg/mL
- IC80 [10]: 22.3 µg/mL
- MPI [10]: 100
- IC50 [11]: 5.92 µg/mL
- IC80 [11]: 18.5 µg/mL
- MPI [11]: 100

Substance: N49P7.1 (antibody)
- IC50 [1]: 0.021 µg/mL
- IC80 [1]: 0.058 µg/mL
- MPI [1]: 100
- IC50 [2]: 0.121 µg/mL
- IC80 [2]: 0.742 µg/mL
- MPI [2]: 99
- IC50 [3]: 0.191 µg/mL
- IC80 [3]: 0.647 µg/mL
- MPI [3]: 100
- IC50 [4]: 0.079 µg/mL
- IC80 [4]: 0.224 µg/mL
- MPI [4]: 100
- IC50 [5]: 0.022 µg/mL
- IC80 [5]: 0.088 µg/mL
- MPI [5]: 100
- IC50 [6]: 9 ng/mL
- IC80 [6]: 0.029 µg/mL
- MPI [6]: 100
- IC50 [12]: 0.497 µg/mL
- IC80 [12]: 1.51 µg/mL
- MPI [12]: 100

Substance: VRC01 (antibody)
- IC50 (Titer in TZM.bl cells) [7]: 0.08 µg/mL
- IC80 (Titer in TZM.bl cells) [7]: 0.265 µg/mL
- IC50 (Titer in TZM.bl cells) [13]: 0.04 µg/mL
- IC80 (Titer in TZM.bl cells) [13]: 0.12 µg/mL
- IC50 (Titer in TZM.bl cells) [14]: 0.04 µg/mL
- IC80 (Titer in TZM.bl cells) [14]: 0.09 µg/mL
- IC50 (Titer in TZM.bl cells) [15]: > 50 µg/mL
- IC80 (Titer in TZM.bl cells) [15]: > 50 µg/mL
- IC50 (Titer in TZM.bl cells) [16]: 1.7 µg/mL
- IC80 (Titer in TZM.bl cells) [16]: 4.58 µg/mL
- IC50 (Titer in TZM.bl cells) [8]: 0.61 µg/mL
- IC80 (Titer in TZM.bl cells) [8]: 1.82 µg/mL
- IC50 (Titer in TZM.bl cells) [17]: 0.46 µg/mL
- IC80 (Titer in TZM.bl cells) [17]: 1.26 µg/mL
- IC50 (Titer in TZM.bl cells) [18]: 3.4 µg/mL
- IC80 (Titer in TZM.bl cells) [18]: 14.4 µg/mL
- IC50 (Titer in TZM.bl cells) [9]: 0.36 µg/mL
- IC80 (Titer in TZM.bl cells) [9]: 1.6 µg/mL
- IC50 (Titer in TZM.bl cells) [10]: 0.36 µg/mL
- IC80 (Titer in TZM.bl cells) [10]: 1.28 µg/mL
- IC50 (Titer in TZM.bl cells) [11]: 2 µg/mL
- IC80 (Titer in TZM.bl cells) [11]: 9.3 µg/mL
- IC50 (Titer in TZM.bl cells) [19]: > 50 µg/mL
- IC80 (Titer in TZM.bl cells) [19]: > 50 µg/mL

Substance: N49P9.1 (antibody)
- neutralization IC50 [3]: 0.21 µg/mL
- neutralization IC80 [3]: 1.37 µg/mL
- neutralization MPI [3]: 100
- neutralization IC50 [12]: 0.519 µg/mL
- neutralization IC80 [12]: 0.151 µg/mL
- neutralization MPI [12]: 100

Substance: N49P7.2 (antibody)
- IC50 [7]: 0.119 µg/mL
- IC80 [7]: 0.564 µg/mL
- MPI [7]: 100
- IC50 [8]: 0.812 µg/mL
- IC80 [8]: 2.87 µg/mL
- MPI [8]: 100
- IC50 [9]: 0.223 µg/mL
- IC80 [9]: 1.37 µg/mL
- MPI [9]: 100
- IC50 [10]: > 50 µg/mL
- IC80 [10]: > 50 µg/mL
- MPI [10]: 20
- IC50 [11]: 0.475 µg/mL
- IC80 [11]: 2.14 µg/mL
- MPI [11]: 99

Substance: PGDM1400 (antibody)
- neutralization IC50 [1]: 1.15 µg/mL
- neutralization IC80 [1]: 9.97 µg/mL
- neutralization IC50 [2]: > 50 µg/mL
- neutralization IC80 [2]: > 50 µg/mL
- neutralization IC50 [4]: 4 ng/mL
- neutralization IC80 [4]: 0.014 µg/mL
- neutralization IC50 [5]: 0.028 µg/mL
- neutralization IC80 [5]: 0.992 µg/mL
- neutralization IC50 [6]: < 0.001 µg/mL
- neutralization IC80 [6]: 0.027 µg/mL
- neutralization IC50 [12]: 0.033 µg/mL
- neutralization IC80 [12]: 0.175 µg/mL

Substance: PGT128 (antibody)
- neutralization IC50 [1]: > 50 µg/mL
- neutralization IC80 [1]: > 50 µg/mL
- neutralization IC50 [2]: > 50 µg/mL
- neutralization IC80 [2]: > 50 µg/mL
- neutralization IC50 [4]: 1 ng/mL
- neutralization IC80 [4]: 0.004 µg/mL
- neutralization IC50 [5]: > 50 µg/mL
- neutralization IC80 [5]: > 50 µg/mL
- neutralization IC50 [6]: 0.026 µg/mL
- neutralization IC80 [6]: 0.095 µg/mL
- neutralization IC50 [12]: 0.058 µg/mL
- neutralization IC80 [12]: 0.162 µg/mL

Substance: N49P7 (antibody)
- IC50 [1]: 0.008 µg/mL
- IC80 [1]: 0.023 µg/mL
- MPI [1]: 100
- IC50 [2]: 0.089 µg/mL
- IC80 [2]: 0.568 µg/mL
- MPI [2]: 100
- IC50 [3]: 0.16 µg/mL
- IC80 [3]: 0.55 µg/mL
- MPI [3]: 100
- IC50 [4]: 0.028 µg/mL
- IC80 [4]: 0.1 µg/mL
- MPI [4]: 100
- IC50 [5]: 0.015 µg/mL
- IC80 [5]: 0.049 µg/mL
- MPI [5]: 100
- IC50 [6]: 6 ng/mL
- IC80 [6]: 0.02 µg/mL
- MPI [6]: 100
- IC50 [12]: 0.354 µg/mL
- IC80 [12]: 0.884 µg/mL
- MPI [12]: 100

Substance: N49P19 (antibody)
- neutralization IC50 [3]: 0.462 µg/mL
- neutralization IC80 [3]: 2.04 µg/mL
- neutralization MPI [3]: 100
- neutralization IC50 [12]: 1.25 µg/mL
- neutralization IC80 [12]: 8.52 µg/mL
- neutralization MPI [12]: 99

Substance: PGT145 (antibody)
- neutralization IC50 [1]: 0.02 µg/mL
- neutralization IC80 [1]: 0.091 µg/mL
- neutralization IC50 [2]: > 50 µg/mL
- neutralization IC80 [2]: > 50 µg/mL
- neutralization IC50 [4]: 318 ng/mL
- neutralization IC80 [4]: 6.97 µg/mL
- neutralization IC50 [5]: < 0.001 µg/mL
- neutralization IC80 [5]: 0.001 µg/mL
- neutralization IC50 [6]: 0.001 µg/mL
- neutralization IC80 [6]: 0.083 µg/mL
- neutralization IC50 [12]: > 50 µg/mL
- neutralization IC80 [12]: > 50 µg/mL

Substance: N49P9 (antibody)
- neutralization IC50 [3]: 0.137 µg/mL
- neutralization IC80 [3]: 0.502 µg/mL
- neutralization MPI [3]: 100
- neutralization IC50 [12]: 0.466 µg/mL
- neutralization IC80 [12]: 1.85 µg/mL
- neutralization MPI [12]: 100

Substance: N49P18.1 (antibody)
- IC50 [7]: 14.1 µg/mL
- IC80 [7]: 43.4 µg/mL
- MPI [7]: 84
- IC50 [8]: 35.2 µg/mL
- IC80 [8]: > 50 µg/mL
- MPI [8]: 60
- IC50 [9]: 12.5 µg/mL
- IC80 [9]: 49.8 µg/mL
- MPI [9]: 84
- IC50 [10]: > 50 µg/mL
- IC80 [10]: > 50 µg/mL
- MPI [10]: 17
- IC50 [11]: 38.4 µg/mL
- IC80 [11]: > 50 µg/mL
- MPI [11]: 57

Substance: PGT151 (antibody)
- neutralization IC50 [1]: 0.004 µg/mL
- neutralization IC80 [1]: 0.017 µg/mL
- neutralization IC50 [2]: 2.65 µg/mL
- neutralization IC80 [2]: > 50 µg/mL
- neutralization IC50 [4]: > 50000 ng/mL
- neutralization IC80 [4]: > 50 µg/mL
- neutralization IC50 [5]: 0.018 µg/mL
- neutralization IC80 [5]: 0.119 µg/mL
- neutralization IC50 [6]: 0.027 µg/mL
- neutralization IC80 [6]: > 50 µg/mL
- neutralization IC50 [12]: 0.427 µg/mL
- neutralization IC80 [12]: > 50 µg/mL
